Laboratory results: the supplement of paper PMC9170038

Assays:
[1] = system: MS2 coat protein; assay: apparent KD of MS2 coat protein; higher = weaker reporter binding; conditions: Eterna round: R107
Procedure: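 RNA-MaP round R107: designed RNA switches with theophylline, tryptophan, arginine or FMN aptamers are transcribed on-chip within common flanks. They are titrated with SNAP-549-labelled MS2 coat protein in RNA-MaP buffer (100 mM Tris pH 7.5, 80 mM KCl, 4 mM MgCl2), without ligand or with the indicated ligand. Median apparent KD per design.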

[2] = system: MS2 coat protein; assay: apparent KD of MS2 coat protein; designed switch direction (-1 OFF switch, 1 ON switch): 1; higher = weaker reporter binding
Outline: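 For each design, the apparent KD is the median over clusters of curves fitted to normalised cluster fluorescence. Clusters held RNA switches with common flanks, transcribed on Illumina chips by stalled E. coli RNA polymerase. These were titrated with SNAP-549-labelled MS2 coat protein, doubling from 0.7 or 1.5 nM to 3 µM, without input, with 200 uM small-molecule ligand, or with an oligonucleotide input.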

[3] = input ligand: theophylline 20 uM
[4] = input ligand: theophylline 2 mM
[5] = input ligand: tryptophan 2.4 mM

Sequence	apparent KD of MS2 coat protein ([1]; input ligand: arginine 13.2 mM) [µM]	apparent KD of MS2 coat protein ([1]; input ligand: none) [µM]	apparent KD of MS2 coat protein [1, 3] [µM]	apparent KD of MS2 coat protein [1, 4] [µM]	apparent KD of MS2 coat protein [1, 5] [µM]	apparent KD of MS2 coat protein ([2]; input ligand: FMN 200 uM) [µM]	apparent KD of MS2 coat protein ([2]; input ligand: microRNA oligo, concentration not stated) [µM]	apparent KD of MS2 coat protein ([2]; input ligand: none) [µM]	apparent KD of MS2 coat protein ([2]; Eterna round: R95, input ligand: microRNA oligo, concentration not stated) [µM]
AAAAGAGGUGGAAGGAGCGGGAGACAUGAGGAUCACCCAUGUGAAGUGACGAAAGGAUCAGCCCAGGUAGGUCGCCAUGUCGAAA [yuiiumullin]	0.031	0.0439	0.0732	0.0259	0.0413				
AAAAGAGGUGGAAGGAGCGGGAGACAUGAGGAUCACCCAUGUGAAGUGACGAAAGGAUCAUCCCAGGUAGGUCGCCAUGUCGAAA [csstmullin]	0.00543	0.147	0.0446	0.039	0.0217				
AAACAUGAGGAUCACCCAUGUGCUCCUGUCCGAGGACCGGUACGGCCGCCACUCGGUUCUCGGGAGGAUGGUCAAAGACUAUCCA [Omei Trp A SS B v10]	0.0607	0.0506	0.0447	0.0578	0.0488				
AAACGCCACGGAAGGAGCGACAUGAGGAUCACCCAUGUAGAUUUGGCGGAUGCACCCUCCUGUCAGGUAGGUCGCCGUGCGAUAA [XArg-B25]	0.0339	0.0608	0.109	0.089	0.0866				
AACAUGAGGAUCACCCAUGUAAAACCGGUACGAGGACCGGUACGGCCGCCACUCGAAACAUGAGGAUCACCCAUGUAAUAAUAUU [Same State Trypophan A GF 21]	0.0352	0.0635	0.075	0.0686	0.0913				
AACAUGAGGAUCACCCAUGUAUUGGGUGAUACCAGCCUGAAUAAGGGCCCUUGGCAGCACCGCGCUAACUUUAUGUCUGCGAACC [Rebiercete]	0.511	0.0541	0.432	0.368	0.277				
AACAUGAGGAUCACCCAUGUCUGAACUGAAGGAGCGCUAAACAAGGCAGGUAGGUCGCGGAAUUUUGUGUGCAUAUGCAUAUGGG [9.J]	0.0228	0.0244	0.0353	0.0296	0.0247				
AACCACAUGAGGAUCACCCAUGUGACCGCUCGAGGACCGGUACGGCCGCCACUCGUGGAGGGACUUAUGCGUUAUCCGGGUAAAU [theeternabot_sameState_MS2_Trp_A_29]	0.0169		0.027	0.0209					
AAGACGGUCGGAAGGAGCGGUACAUGAGGAUCACCCAUGUACCUCUGGGCAUCCGUAGUGUGCCAGGUAGGUCGCCGAUUGCGGG [Esorbevege]	0.0127	0.0117	0.0233	0.0135	0.0121				
AAGGUGAUCCCAGAUACCAGCUCAACAUGAGGAUCACCCAUGUACGGGACGAAAGUCCCGGGCCCUUGGCAGCUGGGUUGCCAAG [SSTheo B #19]	0.0422		0.299		0.185				
AAUAACAUGAGGAUCACCCAUGUAAAAGAUACCAGAGUGAUGAUCCUCCCUUGGCAGCUUAACGCUGAUUGAUUACAAUCAGCGA [TheoAS 3 #Tail #MS2BeforeAptamer #BothOrNeither]	0.0464		0.128		0.0671				
AAUAAUAAGGCGGCCGCCACUAAACAUGAGGAUCACCCAUGUCUCGAGCGCUUGCGUUUGGGAAGUAGGACCGGGCCAAUAAUAA [Exclusion - Tryptophan B (Freestyle 5)]	0.0142	0.0145	0.0164	0.0181	0.0142				
AAUAAUAGGUGAUCCUGACGAGUGGCAUAACGAGGACCGGUACGGCCGCCACUCGAACAUGAGGAUCACCCAUGUAGCCACUCGA [M'-T'-T-MS2-T'' - Design 5.b]	0.032		0.327	0.685					
AAUAAUAGGUGAUCUUGUGUCGUACCGUAACGAGGACCGGUACGGCCGCCACUCGAACAUGAGGAUCACCCAUGUAUGUAUGAUA [whbob_SS_trypto A_f7]	0.0578		0.301	0.497					
AAUCAUAACUGAAGGAGCGUCUAUAUUACAUGAGGAUCACCCAUGUUUAUAUGGUAUUAUAGACAGGUAGGUCGCAGAUUUUUUA [JR_SSArginiB_Sub017]	0.0207	0.0168	0.0216	0.0187	0.0158				
AAUCGUAAGGCGGCCGCCACUACACAUGAGGAUCACCCAUGUCUCGCGGGCUUGCGUUGGGAUAGUAGGACCGGGCCAGUAAUAA [Exclusion - Tryptophan B (Freestyle 13)]	0.0171	0.0262	0.0337	0.0283	0.0251				
AAUGGCCGUACCGGAAGGGUGAUCCUCAAACGAGGACCGGUACGGCCGCCACUCGAUAACAUGAGGAUCACCCAUGUAAUACAUA [whbob_X-Trypto_V2.0]	0.0964		0.405	0.699					
AAUUACAUGAGGAUCACCCAUGUGGCACAACGAGGACCGGUACGGCCGCCACUCGGUGCUGUACCACAAAACAUGCACGGGAAAG [theeternabot_sameState_MS2_Trp_A_6]	0.0331	0.0316	0.0814	0.039	0.0309				
ACAUGAGGAUCACCCAUGUAAUUGCCGGAAGGAGCGUCAUUAAGGACAGGUAGGUCGCUGGUAGGGUCGUCGGUUACGGCGGCCA [SSArg A #10]	0.0133	0.0111	0.0168	0.013	0.0137				

Sequence	apparent KD of MS2 coat protein ([1]; input ligand: arginine 13.2 mM) [µM]	apparent KD of MS2 coat protein ([1]; input ligand: none) [µM]	apparent KD of MS2 coat protein [1, 3] [µM]	apparent KD of MS2 coat protein [1, 4] [µM]	apparent KD of MS2 coat protein [1, 5] [µM]	apparent KD of MS2 coat protein ([2]; input ligand: FMN 200 uM) [µM]	apparent KD of MS2 coat protein ([2]; input ligand: microRNA oligo, concentration not stated) [µM]	apparent KD of MS2 coat protein ([2]; input ligand: none) [µM]	apparent KD of MS2 coat protein ([2]; Eterna round: R95, input ligand: microRNA oligo, concentration not stated) [µM]
ACAUGAGGAUCACCCAUGUACAUAAGGGAAGGAGCGCGGUGAAACGCAGGUAGGUCGCCCAUAAUAUCUAACAUUAAAUUCAUGU [LeftA3]	0.0168	0.0166	0.0279	0.02	0.0188				
ACAUGAGGAUCACCCAUGUAGCCUAGGGAAGGAGCGGCGUAAGAGCCAGGUAGGUCGCCCGCAUGAGGAUCACCCAUGUCGAGGG [Same State Arginine A GF10]	0.0309	0.038	0.0409	0.0331	0.0293				
ACAUGAGGAUCACCCAUGUAGCCUAGGGAAGGAGCGUCGUAAGAGACAGGUAGGUCGCCCGCAUGUGGAUCACCCAUGUCGAGGG [SSArg A #11]	0.0274	0.0375	0.0483	0.0436	0.0387				
ACAUGAGGAUCACCCAUGUAGUGGCACGAUACCAGCUGAUCCCGUGGCCCUUGGCAGCGUCCGGUGUGGUGCGCCGGGAUGGAGC [ZSZMULLIN]	0.0218	0.0284	0.0508	0.0407	0.0356				
ACAUGAGGAUCACCCAUGUCACUCGUGUUCCGAGGACCGGUACGGCCGCCACUCGGUCCUCGCGAGGAUGGUCAAAGACUAUCCA [Omei Trp A SS B v2]	0.0371	0.0752	0.0668	0.0714	0.0486				
ACAUGAGGAUCACCCAUGUGAUGGCGCGAUACCAGCUGAUCCCGUGGCCCUUGGCAGCGUCCGGUGUGGUCCGGCGGGUGGGACG [khkmullin]	0.0914	0.0208	0.0317	0.031	0.0242				
ACAUGAGGAUCACCCAUGUGGCGACUUGAUACCAGACCCGCACUAGUCCCUUGGCAGCAACUACGUGUGGGACACCCAUGUGAAG [aszkullin]	0.0175		0.0239		0.0202				
ACAUGAGGAUCACCCAUGUGUGUAAAUCCUCGAGGACCGGUACGGCCGCCACUCGAUCGAGUGUAAGUUGAAUGUAACAUUCAAC [whbob_SS_trypto A_2s8]	0.0426		0.118	0.108					
ACAUGAGGAUCACCCAUGUUCCUCAUUGAUACCAGUGAAUUUAGACGCCCUUGGCAGCGAGUUUUUUUAUAAGAUUUUUUUUUUU [6.I]	0.239		0.839		0.916				
ACAUGAGGAUCACCCAUGUUCCUCGCCGAUACCAGUGAAGAAGAACGCCCUUGGCAGCGGAAAGAAUAUUUUGGAGAUGAGAUAU [6.V]	0.0705		0.272		0.22				
ACAUGAGGAUCACCCAUGUUUGAUGUUCCUCGAGGACCGGUACGGCCGCCACUCGAACGAGUGGCACGCGAGUGCGCACUCGCGU [aTa]	0.0143	0.0113	0.0199	0.0156	0.0136				
ACAUGAGGCUCACCCAUGUGUAGUGGGUGGCGAGGACCGGUACGGCCGCCACUCGGCAACAUGAGGAUCACCCAUGUAAGGCCCU [RNA Blob]	0.0396	0.133	0.134	0.148	0.035				
ACAUGAGGGAUGGAUACCAGCGACAUGAGGAUCACCCAUGUAUGAGGAUCACCCAUGUUAUGCCCUUGGCAGCCACAAACAUGAG [UUYMULLIN]	0.0248	0.0143	0.02	0.117	0.0169				
ACCCAUAAUUGGGCGGGUGGAUUGAGUGAUACCAGUCGUAUACAUGACCCUUGGCAGCACCGACAUGAGGAUCACCCAUGUGCCA [Same State Theophylline A GF23]	0.0259		0.0384		0.046				
ACCCUAGCGAUCGCUCGCUAGGGUGCGGAUACCAGCGAGGUCCAUCGCCCUUGGCAGCCGAACAUGAGGAUCACCCAUGUCGGUA [#1 Same State - Theophylline A Attempt #19 (HarryS)]	0.0101		0.0116		0.0104				
ACCUACACGGAGACGUGUAGGAGUAAUGAUACCAGCAUGGAGACAUGCCCUUGGCAGCGUUACAUGAGGAUCACCCAUGUACGUU [ETHA #3]	0.0104		0.0151		0.0102				
UUUGCAUUGCAAGGAUAUUGAUAACAUGAGGAUCACCCAUGUAUAGGUUCAGGAUUUACGAGUAACAAGAAGGUGCUAUUGUUU [JR_SSNG2_Sub040] (Eterna round: R96, puzzle: Same State NG 2)						0.0276	0.0207	0.0318	
UUUGGGUGGCUGGAGGAUAUUCGAGUGGUAACAUGAGGAUCACCCAUGUGUCGCGCGGUACACGAGGAGAAGGCUGGCGGCCGUU (puzzle: Same State 2)									0.0417
